Source: US20250090676A1 (SUTRO BIOPHARMA, published 2025)

How the values were obtained:
[1] = target: T1, cynomolgus monkey folate receptor alpha (cynomolgus monkey, UniProt P15328 25-234 (human entry)); test: FACS, CHO-cFOLR1 cells
T1 construct: Expressed on the surface of stably transfected CHO cells; also called cyno FolR1; CHO-cyno FolR1
Experimental: (§1) CHO cells were transfected to stably express human (CHO-hFOLR1), cynomolgus (CHO-cFOLR1), or mouse (CHO-mFOLR1) target molecule FOLR1 on the cell surface. Parental CHO cells were used as a negative control to determine background binding levels. Parental CHO and stably transfected CHO-hFOLR1, CHO-cFOLR1, and CHO-mFOLR1 cells were cultured in Ham's F-12: high glucose DMEM (50:50) (Corning, Cellgro-Mediatech) supplemented with 10% heat-inactivated fetal bovine serum (Corning, Cellgro-Mediatech), 1% Penicillin/Streptomycin (Corning, Cellgro-Mediatech) and 2 mmol/L-glutamax (Life Technology).
(§2) A mixture of fluoresecent-labeled parental CHO cells and unlabeled CHO-hFOLRlcells were prepared as follows. Parental CHO cells were washed twice in PBS and incubated in PBS containing with 1 nM CellTrace™ Oregon Green488® (Life Technologies) at 37° C. for 30 minutes. Labeled parental CHO cells were then washed 2× with Ham's F-12 media and 2× with FACS buffer (PBS with 1% bovine serum albumin). Unlabeled CHO-hFOLR1 cells were similarly washed and prepared. Labeled parental CHO and unlabeled CHO-hFOLR1 cells were combined at 1:1 ratio and seeded at 50 μL per well (200,000 cells per well) in 96 well polypropylene plates. Cells were mixed with 50 μL of test antibodies (i.e., anti-FOLR1 variants) serially diluted in FACS buffer and incubated on ice for 60 mins. […] Data were analyzed using FlowJo® software (FlowJo, LLC; Ashland, OR) to determine mean fluorescence intensities. Binding constants were calculated using the statistical software, GraphPad Prism (GraphPad Software; La Jolla, CA) using the nonlinear regression equation, one site-specific binding with Hill slope. Secondary antibody alone was used as a control, in addition to measuring non-specific antibody binding to CHO parental cells.

[2] = target: T2, human folate receptor alpha (hFOLR1) (human, UniProt P15328 25-234); test: cell-based or functional assay
[3] = target: T3, murine folate receptor alpha (mouse, UniProt P35846 25-232); test: FACS, CHO-mFOLR1 cells;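 further: flow cytometry binding of serially diluted test antibodies to transfected CHO cells on ice, mean fluorescence intensity, parental CHO cells give background, Kd from one-site specific binding fit with Hill slope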
T3 construct: Expressed on the surface of stably transfected CHO cells; also called mouse FolR1; CHO-mouse FolR1
Experimental: as §1, §2

[4] = target: T2, human folate receptor alpha (hFOLR1); test: FACS, CHO-hFOLR1 cells;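 further: flow cytometry of serially diluted antibodies binding CHO cells stably expressing the receptor, 60 min on ice, mixed with dye-tagged parental CHO as background control, one-site specific fit with Hill slope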

T3 sequence (P35846 25-232 limits assumed): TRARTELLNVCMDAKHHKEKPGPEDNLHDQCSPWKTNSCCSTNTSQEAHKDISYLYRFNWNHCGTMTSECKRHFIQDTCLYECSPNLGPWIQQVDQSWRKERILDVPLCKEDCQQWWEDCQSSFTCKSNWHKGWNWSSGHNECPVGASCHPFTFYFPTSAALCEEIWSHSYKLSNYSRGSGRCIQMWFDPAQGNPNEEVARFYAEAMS
T2 sequence (P15328 25-234 limits assumed): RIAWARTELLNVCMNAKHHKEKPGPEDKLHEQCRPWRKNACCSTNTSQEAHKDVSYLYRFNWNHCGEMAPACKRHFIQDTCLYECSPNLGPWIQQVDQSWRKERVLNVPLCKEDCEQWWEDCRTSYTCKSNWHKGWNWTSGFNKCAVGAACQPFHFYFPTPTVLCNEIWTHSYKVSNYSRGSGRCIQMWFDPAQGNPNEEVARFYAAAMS
T1 sequence (P15328 other isoform, or with tags, fused parts or gaps limits assumed): as the sequence (P15328 25-234 limits assumed) above, with I2T, W4R, R37K, Q117R, A146P, H171Y counted along it

| Binder | Bmax (MFI) [1] [MFI] | Kd [1] [nM] | Igrov, 2° Antibody Cell Killing, Nb-SC239: EC50 [2] [nM] | Igrov, 2° Antibody Cell Killing, Nb-SC239: Span [2] [%] | KB, 2° Antibody Cell Killing, Nb-239: EC50 [2] [nM] | KB, 2° Antibody Cell Killing, Nb-239: Span [2] [%] | binding result [3] | Bmax (MFI) [4] [MFI] | Kd [4] [nM] | Bmax (MFI) [3] [MFI] | Kd [3] [nM] |
| --- | --- | --- | --- | --- | --- | --- | --- | --- | --- | --- | --- |
| SRP1848-B06 (antibody, V domains shown, HC variant paired with trastuzumab LC, cell-free expressed, HIS- and FLAG-tagged; also called Antibody 13) VH: EVQLVESGGGLVQPGGSLRLSCAASGFNISNYYIHWVRQAPGKGLEWVGGITPIDGYTDYADSVKGRFTISADTSKNTAYLQMNSLRAEDTAVYYCARGFWSWPSGYGYYQDYWGQGTLVTVSS VL: not shown | 26800 | 1.21 | 0.022 | 72 | 0.058 | 95 | no binding | 25100 | 0.67 |  |  |
| SRP1848-B07 (antibody, V domains shown, HC variant paired with trastuzumab LC, cell-free expressed, HIS- and FLAG-tagged; also called Antibody 14) VH: EVQLVESGGGLVQPGGSLRLSCAASGFNISRFYIHWVRQAPGKGLEWVGGISPYDGFTDYADSVKGRFTISADTSKNTAYLQMNSLRAEDTAVYYCARGSWSWPAGYGYYQDYWGQGTLVTVSS VL: not shown | 25500 | 1.05 | 0.038 | 73 | 0.079 | 96 | no binding | 25600 | 0.66 |  |  |
| SRP1848-B09 (antibody, V domains shown, HC variant paired with trastuzumab LC, cell-free expressed, HIS- and FLAG-tagged; also called Antibody 15) VH: EVQLVESGGGLVQPGGSLRLSCAAGGFNITNYYIHWVRQAPGKGLEWVGGITPVDGYTDYADRVKGRFTISADTSKNTAYLQMNSLRAEDTAVYYCARGAWSWRSGYGYYMDYWGQGTLVTVSS VL: not shown | 25200 | 0.99 | 0.027 | 74 | 0.073 | 97 |  | 25200 | 0.46 | 1420 | 78 |
| SRP1848-B10 (antibody, V domains shown, HC variant paired with trastuzumab LC, cell-free expressed, HIS- and FLAG-tagged; also called Antibody 16) VH: EVQLVESGGGLVQPGGSLRLSCAASGFNTTTKSIHWVRQAPGKGLEWVGEIYPRDGITDYADSVKGRFTISADTSKNTAYLQMNSLRAEDTAVYYCARGGWHWRSGYSYYLDYWGQGTLVTVSS VL: not shown | 21300 | 0.44 |  | 71 | 0.04 | 97 |  | 28200 | 0.83 | 2460 | 7.3 |
| SRP1848-B11 (antibody, V domains shown, HC variant paired with trastuzumab LC, cell-free expressed, HIS- and FLAG-tagged; also called Antibody 17) VH: EVQLVESGGGLVQPGGSLRLSCAASGFNIGNNSIHWVRQAPGKGLEWVGDISPIDGFTDYADSVKGRFTISADTSKNTAYLQMNSLRAEDTAVYYCARGSWSWRAGYGYYLDYWGQGTLVTVSS VL: not shown | 22900 | 0.34 | 0.026 | 74 | 0.058 | 93 |  | 28400 | 0.56 | 1630 | 3.9 |
| SRP1848-C01 (antibody, V domains shown, HC variant paired with trastuzumab LC, cell-free expressed, HIS- and FLAG-tagged; also called Antibody 18) VH: EVQLVESGGGLVQPGGSLRLSCAASGFNIGNSYIHWVRQAPGKGLEWVGGVTPNDGYTDYADSVKGRFTISADTSKNTTYLQMNSLRAEDTAVYYCARGSWFWRAGYGYYLDYWGQGALVTVSS VL: not shown | 25900 | 0.6 | 0.023 | 68 |  | 90 |  | 28500 | 0.66 | 1370 | 26 |
| SRP1848-C03 (antibody, V domains shown, HC variant paired with trastuzumab LC, cell-free expressed, HIS- and FLAG-tagged; also called Antibody 19) VH: EVQLVESGGGLVQPGGSLRLSCAASGFNIGVYSIHWVRQAPGKGLEWVGEIYPIDGNTDYADSVKGRFTISADTSKNTAYLQMNSLRAEDTAVYYCARGSWAWRSGYSYYLDYWGQGTLVTVSS VL: not shown | 25100 | 0.5 | 0.035 | 72 | 0.074 | 93 |  | 29100 | 0.51 | 3310 | 3 |
| SRP1848-C04 (antibody, V domains shown, HC variant paired with trastuzumab LC, cell-free expressed, HIS- and FLAG-tagged; also called Antibody 20) VH: EVQLVESGGGLVQPGGSLRLSCAASGFNIRHYSIHWVRQAPGKGLEWVGEIYPGPGNTDYADSVKGRFTISADTSKNTAYLQMNSLRAEDTAVYYCARGSLSWRAGYGYYLDYWGQGTLVTVSS VL: not shown | 22000 | 0.86 | 0.016 | 68 | 0.006 | 94 |  | 26300 | 0.44 | 2510 | 62 |
| SRP1848-C05 (antibody, V domains shown, HC variant paired with trastuzumab LC, cell-free expressed, HIS- and FLAG-tagged; also called Antibody 21) VH: EVQLVESGGGLVQPGGSLRLSCAASGFNIRKYSIHWVRQAPGKGLEWVGDIFPIDGINDYADSVKGRFTISADTSKNTAYLQMNSLRAEDTAVYYCARGSWSWKAGYGYYLDYWGQGTLVTVSS VL: not shown | 15200 | 0.35 | 0.021 | 62 | 0.073 | 92 |  | 26800 | 0.52 | 4130 | 4.8 |
| SRP1848-C07 (antibody, V domains shown, HC variant paired with trastuzumab LC, cell-free expressed, HIS- and FLAG-tagged; also called Antibody 22) VH: EVQLVESGGGLVQPGGSLRLSCAASGFNIRKYSIHWVRQAPGKGLEWVGDIFPIDGITDYADSMKGRFTISADTSKNTAYLQMNSLRAEDTAVYYCARGSWSWPAGYGYYQDYWGQGTLVTVSS VL: not shown | 18100 | 0.23 | 0.013 | 67 | 0.065 | 93 |  | 28800 | 0.62 | 3170 | 1.4 |
| SRP1848-C10 (antibody, V domains shown, HC variant paired with trastuzumab LC, cell-free expressed, HIS- and FLAG-tagged; also called Antibody 23) VH: EVQLVESGGGLVQPGGSLRLSCAASGFNIRTYYIHWVRQAPGKGLEWVGGISPIDGYTDYADSVKGRFTISADTSKNTAYLQMNSLRAEDTAVYYCARGSWSWPAGYGYYLDYWGQGTLVTVSS VL: not shown | 16000 | 0.27 | 0.036 | 75 | 0.057 | 96 |  | 27500 | 0.91 | 2330 | 5.6 |
| SRP1848-D02 (antibody, V domains shown, HC variant paired with trastuzumab LC, cell-free expressed, HIS- and FLAG-tagged; also called Antibody 24) VH: EVQLVESGGGLVQPGGSLRLSCAASGFNISHNYIHWVRQAPGKGLEWVGGITPQDGYTDYADSVKGRFTISADTSKNTAYLQMNRLRAEDTAVYYCARGAWSWRAGYGYYLDYWGQGTLVTVSS VL: not shown | 28000 | 0.61 | 0.027 | 71 | 0.034 | 93 |  | 28800 | 0.6 | 916 | 87 |
